Results published in patent US20180335433A1 (LA JOLLA INSTITUTE FOR ALLERGY AND IMMUNOLOGY, published 2018).

What was measured:
[1] = molecular target: T1, SH3-inactivated (W97A) Lck (UniProt P06239 2-509, limits assumed); experiment: anti-Myc IP from stimulated JCam1.6 cells reconstituted with Lck W97A, immunoblot for Lck (FIG. 12)
T1 construct: whole, on cells; also called Lck W97A
Protocol: FIG. 12 Interaction between CD28 and the V3 of PKCθ is Lck-dependent. PKCθ-Lck-CD28 association in Lck-deficient (JCam1.6) Jurkat cells cotransfected with Myc-tagged PKCθ−V3 plus WT Lck or its indicated mutants, Transfected cells were stimulated with anti-CD3 and anti-CD28 for 5 min, immunoprecipitated with an anti-Myc Ab, and immunoblotted for Lck and endogenous CD28. Data are from three experiments.

[2] = molecular target: T2, CD28, endogenous in primary mouse CD4+ T cells (mouse, UniProt P31041 20-218); experiment: anti-CD28 co-IP, stimulated transduced PKCθ-/- T cells (FIG. 4c)
T2 construct: whole, on cells; Immunoprecipitated with anti-CD28 mAb from lysates of retrovirally transduced mouse T cells; also called murine CD28
T2 sequence (P31041 20-218): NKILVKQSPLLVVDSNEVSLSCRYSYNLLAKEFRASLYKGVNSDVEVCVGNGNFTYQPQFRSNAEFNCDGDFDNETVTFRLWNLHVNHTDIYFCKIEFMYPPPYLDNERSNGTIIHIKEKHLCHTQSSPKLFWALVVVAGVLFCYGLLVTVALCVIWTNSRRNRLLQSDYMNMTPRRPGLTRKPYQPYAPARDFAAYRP

T1 sequence (P06239 2-509 W97A limits assumed): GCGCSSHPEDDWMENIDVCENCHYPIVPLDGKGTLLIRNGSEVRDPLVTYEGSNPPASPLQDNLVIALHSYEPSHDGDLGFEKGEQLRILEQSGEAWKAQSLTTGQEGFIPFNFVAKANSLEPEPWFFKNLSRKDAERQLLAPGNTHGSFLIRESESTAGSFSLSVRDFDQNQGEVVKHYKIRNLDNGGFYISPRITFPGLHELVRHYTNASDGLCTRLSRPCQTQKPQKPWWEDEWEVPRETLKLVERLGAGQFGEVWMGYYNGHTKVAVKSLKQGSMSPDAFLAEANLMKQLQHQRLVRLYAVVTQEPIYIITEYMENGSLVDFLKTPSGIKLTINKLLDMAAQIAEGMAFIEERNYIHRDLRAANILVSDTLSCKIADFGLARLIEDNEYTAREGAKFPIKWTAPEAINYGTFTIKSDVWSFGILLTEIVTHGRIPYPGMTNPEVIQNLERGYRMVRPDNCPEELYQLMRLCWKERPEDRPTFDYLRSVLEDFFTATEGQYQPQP

binding result [1]	binding result [2]	Binder
no binding	–	Myc-tagged PKCθ V3 domain (aa 282-379 of human PKCθ, N-terminal Myc tag) (other, also called Myc-tagged V3; isolated V3 domain; not shown: N-terminal Myc tag of the pMIG vector) GINQKLMAEALAMIESTQQARCLRDTEQIFREGPVEIGLPCSIKNEARPPCLPTPGKREPQGISWESPLDEVDKMCHLPEPELNKERPSLQIKLKIED
–	no binding	PKCθ P330/1/4/6A (4P-A; all four Pro residues of the PR motif mutated to alanine) (enzyme) MSPFLRIGLSNFDCGSCQSCQGEAVNPYCAVLVKEYVESENGQMYIQKKPTMYPPWDSTFDAHINKGRVMQIIVKGKNVDLISETTVELYSLAERCRKNNGKTEIWLELKPQGRMLMNARYFLEMSDTKDMNEFETEGFFALHQRRGAIKQAKVHHVKCHEFTATFFPQPTFCSVCHEFVWGLNKQGYQCRQCNAAIHKKCIDKVIAKCTGSAINSRETMFHKERFKIDMPHRFKVYNYKSPTFCEHCGTLLWGLARQGLKCDACGMNVHHRCQTKVANLCGINQKLMAEALAMIESTQQARCLRDTEQIFREGPVEIGLPCSIKNEARAACLATAGKREPQGISWESPLDEVDKMCHLPEPELNKERPSLQIKLKIEDFILHKMLGKGSFGKVFLAEFKKTNQFFAIKALKKDVVLMDDDVECTMVEKRVLSLAWEHPFLTHMFCTFQTKENLFFVMEYLNGGDLMYHIQSCHKFDLSRATFYAAEIILGLQFLHSKGIVYRDLKLDNILLDKDGHIKIADFGMCKENMLGDAKTNTFCGTPDYIAPEILLGQKYNHSVDWWSFGVLLYEMLIGQSPFHGQDEEELFHSIRMDNPFYPRWLEKEAKDLLVKLFVREPEKRLGVRGDIRQHPLFREINWEELERKEIDPPFRPKVKSPFDCSNFDKEFLNEKPRLSFADRALINSMDQNMFRNFSFMNPGMERLIS
